Starred links: 1 amine or outer side, 2 acyl side, 3 side chain; linkers in the order of their positions; H or OH if unused. Non-standard residues stand in square brackets, D forms with d. Groups on a side chain read outwards from the residue. No end group written: not given here. *: point of attachment. C20 diacid = O=C(O)CCCCCCCCCCCCCCCCCCC(=O)*; C18 diacid = O=C(O)CCCCCCCCCCCCCCCCC(=O)*; γGlu = O=C(O)[C@H](CCC(=O)[*:2])N[*:1]; αMeF = C[C@](N)(Cc1ccccc1)C(=O)O; AEEA = NCCOCCOCC(=O)O; Aib = CC(C)(N)C(=O)O
B1: Peptide 497 (peptide)
peptide: H[Aib]QGTFTSDVSK[αMeF]LDTK([AEEA-AEEA-γGlu-C18 diacid])RAQDFVRWLLR[Aib]A-OH
modifications: N-terminus assumed
SMILES: CC(C)C[C@H](NC(=O)[C@H](Cc1c[nH]c2ccccc12)NC(=O)[C@H](CCCNC(=N)N)NC(=O)[C@@H](NC(=O)[C@H](Cc1ccccc1)NC(=O)[C@H](CC(=O)O)NC(=O)[C@H](CCC(N)=O)NC(=O)[C@H](C)NC(=O)[C@H](CCCNC(=N)N)NC(=O)[C@H](CCCCNC(=O)COCCOCCNC(=O)COCCOCCNC(=O)CC[C@H](NC(=O)CCCCCCCCCCCCCCCCC(=O)O)C(=O)O)NC(=O)[C@@H](NC(=O)[C@H](CC(=O)O)NC(=O)[C@H](CC(C)C)NC(=O)[C@](C)(Cc1ccccc1)NC(=O)[C@H](CCCCN)NC(=O)[C@H](CO)NC(=O)[C@@H](NC(=O)[C@H](CC(=O)O)NC(=O)[C@H](CO)NC(=O)[C@@H](NC(=O)[C@H](Cc1ccccc1)NC(=O)[C@@H](NC(=O)CNC(=O)[C@H](CCC(N)=O)NC(=O)C(C)(C)NC(=O)[C@@H](N)Cc1c[nH]cn1)[C@@H](C)O)[C@@H](C)O)C(C)C)[C@@H](C)O)C(C)C)C(=O)N[C@@H](CC(C)C)C(=O)N[C@@H](CCCNC(=N)N)C(=O)NC(C)(C)C(=O)N[C@@H](C)C(=O)O
B2: Peptide 495 (peptide)
peptide: H[Aib]QGTFTSDVSK[αMeF]LDTK([AEEA-AEEA-γGlu-C18 diacid])RAQDFVRWLLR[Aib]K-NH2
modifications: N-terminus assumed
SMILES: CC(C)C[C@H](NC(=O)[C@H](Cc1c[nH]c2ccccc12)NC(=O)[C@H](CCCNC(=N)N)NC(=O)[C@@H](NC(=O)[C@H](Cc1ccccc1)NC(=O)[C@H](CC(=O)O)NC(=O)[C@H](CCC(N)=O)NC(=O)[C@H](C)NC(=O)[C@H](CCCNC(=N)N)NC(=O)[C@H](CCCCNC(=O)COCCOCCNC(=O)COCCOCCNC(=O)CC[C@H](NC(=O)CCCCCCCCCCCCCCCCC(=O)O)C(=O)O)NC(=O)[C@@H](NC(=O)[C@H](CC(=O)O)NC(=O)[C@H](CC(C)C)NC(=O)[C@](C)(Cc1ccccc1)NC(=O)[C@H](CCCCN)NC(=O)[C@H](CO)NC(=O)[C@@H](NC(=O)[C@H](CC(=O)O)NC(=O)[C@H](CO)NC(=O)[C@@H](NC(=O)[C@H](Cc1ccccc1)NC(=O)[C@@H](NC(=O)CNC(=O)[C@H](CCC(N)=O)NC(=O)C(C)(C)NC(=O)[C@@H](N)Cc1c[nH]cn1)[C@@H](C)O)[C@@H](C)O)C(C)C)[C@@H](C)O)C(C)C)C(=O)N[C@@H](CC(C)C)C(=O)N[C@@H](CCCNC(=N)N)C(=O)NC(C)(C)C(=O)N[C@@H](CCCCN)C(N)=O
B3: Peptide 493 (peptide)
peptide: H[Aib]QGTFTSDVSK[αMeF]LDTK([AEEA-AEEA-γGlu-C18 diacid])RAQDFVRWLLR[Aib]K-OH
modifications: N-terminus assumed
SMILES: CC(C)C[C@H](NC(=O)[C@H](Cc1c[nH]c2ccccc12)NC(=O)[C@H](CCCNC(=N)N)NC(=O)[C@@H](NC(=O)[C@H](Cc1ccccc1)NC(=O)[C@H](CC(=O)O)NC(=O)[C@H](CCC(N)=O)NC(=O)[C@H](C)NC(=O)[C@H](CCCNC(=N)N)NC(=O)[C@H](CCCCNC(=O)COCCOCCNC(=O)COCCOCCNC(=O)CC[C@H](NC(=O)CCCCCCCCCCCCCCCCC(=O)O)C(=O)O)NC(=O)[C@@H](NC(=O)[C@H](CC(=O)O)NC(=O)[C@H](CC(C)C)NC(=O)[C@](C)(Cc1ccccc1)NC(=O)[C@H](CCCCN)NC(=O)[C@H](CO)NC(=O)[C@@H](NC(=O)[C@H](CC(=O)O)NC(=O)[C@H](CO)NC(=O)[C@@H](NC(=O)[C@H](Cc1ccccc1)NC(=O)[C@@H](NC(=O)CNC(=O)[C@H](CCC(N)=O)NC(=O)C(C)(C)NC(=O)[C@@H](N)Cc1c[nH]cn1)[C@@H](C)O)[C@@H](C)O)C(C)C)[C@@H](C)O)C(C)C)C(=O)N[C@@H](CC(C)C)C(=O)N[C@@H](CCCNC(=N)N)C(=O)NC(C)(C)C(=O)N[C@@H](CCCCN)C(=O)O
B4: Peptide 496 (peptide)
peptide: H[Aib]QGTFTSDVSK[αMeF]LDTK([AEEA-AEEA-γGlu-C20 diacid])RAQDFVRWLLR[Aib]K-NH2
modifications: N-terminus assumed
SMILES: CC(C)C[C@H](NC(=O)[C@H](Cc1c[nH]c2ccccc12)NC(=O)[C@H](CCCNC(=N)N)NC(=O)[C@@H](NC(=O)[C@H](Cc1ccccc1)NC(=O)[C@H](CC(=O)O)NC(=O)[C@H](CCC(N)=O)NC(=O)[C@H](C)NC(=O)[C@H](CCCNC(=N)N)NC(=O)[C@H](CCCCNC(=O)COCCOCCNC(=O)COCCOCCNC(=O)CC[C@H](NC(=O)CCCCCCCCCCCCCCCCCCC(=O)O)C(=O)O)NC(=O)[C@@H](NC(=O)[C@H](CC(=O)O)NC(=O)[C@H](CC(C)C)NC(=O)[C@](C)(Cc1ccccc1)NC(=O)[C@H](CCCCN)NC(=O)[C@H](CO)NC(=O)[C@@H](NC(=O)[C@H](CC(=O)O)NC(=O)[C@H](CO)NC(=O)[C@@H](NC(=O)[C@H](Cc1ccccc1)NC(=O)[C@@H](NC(=O)CNC(=O)[C@H](CCC(N)=O)NC(=O)C(C)(C)NC(=O)[C@@H](N)Cc1c[nH]cn1)[C@@H](C)O)[C@@H](C)O)C(C)C)[C@@H](C)O)C(C)C)C(=O)N[C@@H](CC(C)C)C(=O)N[C@@H](CCCNC(=N)N)C(=O)NC(C)(C)C(=O)N[C@@H](CCCCN)C(N)=O
B5: Peptide 494 (peptide)
peptide: H[Aib]QGTFTSDVSK[αMeF]LDTK([AEEA-AEEA-γGlu-C20 diacid])RAQDFVRWLLR[Aib]K-OH
B6: Peptide 492 (peptide)
peptide: H[Aib]QGTFTSDVSK[αMeF]LDTK([AEEA-AEEA-γGlu-C20 diacid])RARDFVRWLL[Aib]TE-OH
modifications: N-terminus assumed
SMILES: CC(C)C[C@H](NC(=O)[C@H](Cc1c[nH]c2ccccc12)NC(=O)[C@H](CCCNC(=N)N)NC(=O)[C@@H](NC(=O)[C@H](Cc1ccccc1)NC(=O)[C@H](CC(=O)O)NC(=O)[C@H](CCCNC(=N)N)NC(=O)[C@H](C)NC(=O)[C@H](CCCNC(=N)N)NC(=O)[C@H](CCCCNC(=O)COCCOCCNC(=O)COCCOCCNC(=O)CC[C@H](NC(=O)CCCCCCCCCCCCCCCCCCC(=O)O)C(=O)O)NC(=O)[C@@H](NC(=O)[C@H](CC(=O)O)NC(=O)[C@H](CC(C)C)NC(=O)[C@](C)(Cc1ccccc1)NC(=O)[C@H](CCCCN)NC(=O)[C@H](CO)NC(=O)[C@@H](NC(=O)[C@H](CC(=O)O)NC(=O)[C@H](CO)NC(=O)[C@@H](NC(=O)[C@H](Cc1ccccc1)NC(=O)[C@@H](NC(=O)CNC(=O)[C@H](CCC(N)=O)NC(=O)C(C)(C)NC(=O)[C@@H](N)Cc1c[nH]cn1)[C@@H](C)O)[C@@H](C)O)C(C)C)[C@@H](C)O)C(C)C)C(=O)N[C@@H](CC(C)C)C(=O)NC(C)(C)C(=O)N[C@H](C(=O)N[C@@H](CCC(=O)O)C(=O)O)[C@@H](C)O
B7: Peptide 498 (peptide)
peptide: H[Aib]QGTFTSDVSK[αMeF]LDTK([AEEA-AEEA-γGlu-C20 diacid])RAQDFVRWLLR[Aib]A-OH
modifications: N-terminus assumed
SMILES: CC(C)C[C@H](NC(=O)[C@H](Cc1c[nH]c2ccccc12)NC(=O)[C@H](CCCNC(=N)N)NC(=O)[C@@H](NC(=O)[C@H](Cc1ccccc1)NC(=O)[C@H](CC(=O)O)NC(=O)[C@H](CCC(N)=O)NC(=O)[C@H](C)NC(=O)[C@H](CCCNC(=N)N)NC(=O)[C@H](CCCCNC(=O)COCCOCCNC(=O)COCCOCCNC(=O)CC[C@H](NC(=O)CCCCCCCCCCCCCCCCCCC(=O)O)C(=O)O)NC(=O)[C@@H](NC(=O)[C@H](CC(=O)O)NC(=O)[C@H](CC(C)C)NC(=O)[C@](C)(Cc1ccccc1)NC(=O)[C@H](CCCCN)NC(=O)[C@H](CO)NC(=O)[C@@H](NC(=O)[C@H](CC(=O)O)NC(=O)[C@H](CO)NC(=O)[C@@H](NC(=O)[C@H](Cc1ccccc1)NC(=O)[C@@H](NC(=O)CNC(=O)[C@H](CCC(N)=O)NC(=O)C(C)(C)NC(=O)[C@@H](N)Cc1c[nH]cn1)[C@@H](C)O)[C@@H](C)O)C(C)C)[C@@H](C)O)C(C)C)C(=O)N[C@@H](CC(C)C)C(=O)N[C@@H](CCCNC(=N)N)C(=O)NC(C)(C)C(=O)N[C@@H](C)C(=O)O
B8: Peptide 499 (peptide)
peptide: H[Aib]QGTFTSDVSK[αMeF]LDTK([AEEA-AEEA-γGlu-C18 diacid])RAQDFVQWLLR[Aib]A-OH
modifications: N-terminus assumed
SMILES: CC(C)C[C@H](NC(=O)[C@H](Cc1c[nH]c2ccccc12)NC(=O)[C@H](CCC(N)=O)NC(=O)[C@@H](NC(=O)[C@H](Cc1ccccc1)NC(=O)[C@H](CC(=O)O)NC(=O)[C@H](CCC(N)=O)NC(=O)[C@H](C)NC(=O)[C@H](CCCNC(=N)N)NC(=O)[C@H](CCCCNC(=O)COCCOCCNC(=O)COCCOCCNC(=O)CC[C@H](NC(=O)CCCCCCCCCCCCCCCCC(=O)O)C(=O)O)NC(=O)[C@@H](NC(=O)[C@H](CC(=O)O)NC(=O)[C@H](CC(C)C)NC(=O)[C@](C)(Cc1ccccc1)NC(=O)[C@H](CCCCN)NC(=O)[C@H](CO)NC(=O)[C@@H](NC(=O)[C@H](CC(=O)O)NC(=O)[C@H](CO)NC(=O)[C@@H](NC(=O)[C@H](Cc1ccccc1)NC(=O)[C@@H](NC(=O)CNC(=O)[C@H](CCC(N)=O)NC(=O)C(C)(C)NC(=O)[C@@H](N)Cc1c[nH]cn1)[C@@H](C)O)[C@@H](C)O)C(C)C)[C@@H](C)O)C(C)C)C(=O)N[C@@H](CC(C)C)C(=O)N[C@@H](CCCNC(=N)N)C(=O)NC(C)(C)C(=O)N[C@@H](C)C(=O)O

What was measured:
[1] = biological target: human glucagon receptor (hGCGR) (human, UniProt P47871 26-477); experiment: cell-based or functional assay
[2] = biological target: human GLP-1 receptor (hGLP-1R) (human, UniProt P43220 24-463); experiment: cell-based or functional assay

human glucagon receptor (hGCGR), sequence (P47871 26-477): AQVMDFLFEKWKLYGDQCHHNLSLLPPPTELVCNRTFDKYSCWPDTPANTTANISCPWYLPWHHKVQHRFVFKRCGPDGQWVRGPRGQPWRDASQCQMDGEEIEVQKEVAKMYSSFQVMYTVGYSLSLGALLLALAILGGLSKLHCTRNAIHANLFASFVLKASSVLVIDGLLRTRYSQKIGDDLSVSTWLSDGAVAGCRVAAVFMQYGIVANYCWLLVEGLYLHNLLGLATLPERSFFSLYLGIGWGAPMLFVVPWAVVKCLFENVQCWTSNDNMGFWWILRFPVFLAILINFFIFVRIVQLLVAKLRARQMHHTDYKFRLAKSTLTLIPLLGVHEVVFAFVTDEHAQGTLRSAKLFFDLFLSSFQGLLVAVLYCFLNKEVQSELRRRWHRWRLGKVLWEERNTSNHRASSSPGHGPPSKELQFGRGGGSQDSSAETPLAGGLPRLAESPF

Row | hGluc-R EC50 (pM) [1] | hGLP-1R EC50 (pM) [2] | Binder
1 | 118 pM | 37.4 pM | B1
2 | 380 pM | 23.2 pM | B2
3 | 166 pM | 23.4 pM | B3
4 | 482 pM | 64.9 pM | B4
5 | 212 pM | 98.7 pM | B5
6 | 374 pM | 212 pM | B6
7 | 170 pM | 156 pM | B7
8 | 78.8 pM | 40.6 pM | B8
